{"source": "patent US20240317834A1", "about": "“COMPOSITIONS AND METHODS FOR NEUROLOGICAL DISEASES” (CODA BIOTHERAPEUTICS, INC., priority 2020, published 2024)", "key": {"Lenti-X 293T cells": {"tested_on": "Lenti-X 293T cells", "experiment": "YFP fluorescence quenching anion reporter plate reader assay of engineered receptors stimulated with acetylcholine or a non-native ligand", "assay_type": "cell-based", "outline": "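YFP quench was followed for about 1 min 43 s after ligand delivered in iodide-based ECS, pH 7.2. Values are end-of-read fluorescence (last 10 s) divided by the pre-ligand baseline (15 s). Cells were LX293T, transfected with receptor DNA a day before the assay.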"}, "rat DRG neurons": {"tested_on": "rat DRG neurons", "experiment": "Rheobase shift and evoked action potentials in rat DRG neurons (current clamp)", "assay_type": "cell-based", "procedure": "Using whole cell manual patch clamp electrophysiology in HEK293 cells, rat DRG neurons and rat hippocampal neurons, the EC50 of the various engineered receptors disclosed herein to Ach and non-native ligands was measured using the Hill equation with peak current measurements from escalating doses of ligand. The rheobase shift was also measured in rat DRG neurons, which reflects the efficacy of the receptors. To calculate the rheobase, first, the amount of current that can produce an action potential was determined. Then the ligand was added, followed by a step wise increase in the current injected up to 700 pA.\nFor manual patch clamp experiments, Cells plated on coverslips were visualized at 10× and 40× on an inverted fluorescence microscope (Olympus). Recordings were made with an Axopatch 200B amplifier and Digidata 1550B (Molecular Devices) at RT using 3-6 MOhm glass patch electrodes (Sutter, BF150-86-10). Unless otherwise stated, recordings were made in extracellular solution (ECS) containing: 140 mM sodium chloride, 4 mM potassium chloride, 1 mM magnesium chloride, 2 mM calcium chloride, 10 mM HEPES, and 10 mM D-(+)-glucose (pH=7.3 with sodium hydroxide, osmolarity=305−315 mOsm). An 8-line reservoir (AutoMate Scientific) in combination with an 8-channel zero-dead-volume perfusion pencil (AutoMate Scientific) was used for perfusion. Data was acquired using pClamp software (Molecular Devices). Traces were either analyzed in Clampfit (Molecular Devices) or using custom Python code. Plotting and statistics were performed in GraphPad Prism.\nDRG rheobase experiments were performed in current clamp mode using a potassium-based internal solution containing: 100 mM potassium D-gluconate, 28 mM potassium chloride, 1 mM magnesium chloride hexahydrate, 5 mM magnesium ATP, 10 mM HEPES, and 0.5 mM EGTA (pH=7.2 with potassium hydroxide, osmolarity=290-295 mOsm, calculated liquid junction potential=−13.5 mV). To measure DRG input resistance and rheobase, 500 ms current steps (−200 pA to 700 pA) were applied the membrane in the presence and absence of a compound. No holding current was applied to the membrane for cells included in the final datasets. Data were acquired at 10 kHz, with Bessel filter at 2 kHz and series resistance compensation at 100%. Rheobase was defined as the smallest depolarizing current injection required to cause an action potential to fire in the cell. In a subset of cells, the rheobase was ambiguous, since the action potential appeared to be graded in amplitude. In these cases, a […] of the trace clarified the rheobase. Input resistance was measured from the negative current injections, calculated as the difference in membrane potential at steady state divided by the current injection amplitude and then averaged across the four negative current steps for each recording. Resting membrane potential was measured from the first 100 ms of each sweep, averaged for each recording, and corrected for liquid junction potential. One-way ANOVA with multiple comparisons was used to test for significance of difference in rheobase and input resistance between baseline, drug, and wash conditions."}}}
{"molecule": "CODA1025: engineered chimeric LGIC receptor, R101F, L131G in SEQ ID NO: 33 (protein, synthetic sequence of chimeric LGIC) MRCSPGGVWLALAASLLHVSLQGEFQRKLYKELVKNYNPLERPVANDSQPLTVYFSLSLLQIMDVDEKNQVLTTNIWLQMSWTDHYLQWNVSEYPGVKTVFFPDGQIWKPDILLYNSADERFDATFHTNVGVNSSGHCQYLPPGIFKSSCPMDLKNFPMDVQTCKLKFGSWSYGGWSLDLQMQEADISGYIPNGEWDLVGIPGKRSERFYECCKEPYPDVTFTVTMRRRMGYYLIQMYIPSLLIVILSWISFWINMDAAPARVGLGITTVLTMTTQSSGSRASLPKVSYVKAIDIWMAVCLLFVFSALLEYAAVNFVSRQHKELLRFRRKRRHHKSPMLNLFQEDEAGEGRFNFSAYGMGPACLQAKDGISVKGANNSNTTNPPPAPSKSPEEMRKLFIQRAKKIDKISRIGFPMAFLIFNMFYWIIYKIVRREDVHNQ", "values": [{"measurement": "YFP fluorescence quenching using CNL001", "setting": "Lenti-X 293T cells; 1 nM CNL001, first column", "value": "−18.527", "unit": "%"}, {"measurement": "YFP fluorescence quenching using CNL001", "setting": "Lenti-X 293T cells; 1 nM CNL001, second column", "value": "−21.577", "unit": "%"}, {"measurement": "YFP fluorescence quenching using TC-5619/Bradanicline", "setting": "Lenti-X 293T cells; 1 nM brd", "value": "−10.61", "unit": "%"}, {"measurement": "YFP fluorescence quenching using TC-5619/Bradanicline", "setting": "Lenti-X 293T cells; 3 nM brd", "value": 2.63, "unit": "%"}, {"measurement": "YFP fluorescence quenching using Varenicline", "setting": "Lenti-X 293T cells; 3 nM var, first column", "value": 48.074}, {"measurement": "YFP fluorescence quenching using Varenicline", "setting": "Lenti-X 293T cells; 3 nM var, second column", "value": 60.978}, {"measurement": "YFP fluorescence quenching using CNL001", "setting": "Lenti-X 293T cells; 10 nM CNL001, first column", "value": 14.063, "unit": "%"}, {"measurement": "YFP fluorescence quenching using CNL001", "setting": "Lenti-X 293T cells; 10 nM CNL001, second column", "value": 49.818, "unit": "%"}, {"measurement": "YFP fluorescence quenching using TC-5619/Bradanicline", "setting": "Lenti-X 293T cells; 10 nM brd", "value": 17.71, "unit": "%"}, {"measurement": "YFP fluorescence quenching using TC-5619/Bradanicline", "setting": "Lenti-X 293T cells; 30 nM brd", "value": 68.48, "unit": "%"}, {"measurement": "YFP fluorescence quenching using Facinicline", "setting": "Lenti-X 293T cells; 30 nM fac", "value": "−8.99"}, {"measurement": "YFP fluorescence quenching using Varenicline", "setting": "Lenti-X 293T cells; 30 nM var, first column", "value": 70.023}, {"measurement": "YFP fluorescence quenching using Varenicline", "setting": "Lenti-X 293T cells; 30 nM var, second column", "value": 69.433}, {"measurement": "YFP fluorescence quenching using CNL001", "setting": "Lenti-X 293T cells; 50 nM CNL001, first column", "value": 77.765, "unit": "%"}, {"measurement": "YFP fluorescence quenching using CNL001", "setting": "Lenti-X 293T cells; 50 nM CNL001, second column", "value": 79.23, "unit": "%"}, {"measurement": "YFP fluorescence quenching using ABT-126", "setting": "Lenti-X 293T cells; 50 nM abt", "value": "−11.53", "unit": "%"}, {"measurement": "YFP fluorescence quenching using CNL001", "setting": "Lenti-X 293T cells; 100 nM CNL001, first column", "value": 80.544, "unit": "%"}, {"measurement": "YFP fluorescence quenching using CNL001", "setting": "Lenti-X 293T cells; 100 nM CNL001, second column", "value": 80.695, "unit": "%"}, {"measurement": "YFP fluorescence quenching using CNL002", "setting": "Lenti-X 293T cells; 100 nM CNL002", "value": 12.48, "unit": "%"}, {"measurement": "YFP fluorescence quenching using ABT-126", "setting": "Lenti-X 293T cells; 100 nM abt", "value": "−7.61", "unit": "%"}, {"measurement": "YFP fluorescence quenching using AZD-0328", "setting": "Lenti-X 293T cells; 100 nM azd0328", "value": 6.26, "unit": "%"}, {"measurement": "YFP fluorescence quenching using ABT-126", "setting": "Lenti-X 293T cells; 300 nM abt", "value": 6.55, "unit": "%"}, {"measurement": "YFP fluorescence quenching using AZD-0328", "setting": "Lenti-X 293T cells; 300 nM azd0328", "value": 37.98, "unit": "%"}, {"measurement": "YFP fluorescence quenching using TC-5619/Bradanicline", "setting": "Lenti-X 293T cells; 300 nM brd", "value": 75.12, "unit": "%"}, {"measurement": "YFP fluorescence quenching using Facinicline", "setting": "Lenti-X 293T cells; 300 nM fac", "value": 10.21}, {"measurement": "YFP fluorescence quenching using Varenicline", "setting": "Lenti-X 293T cells; 300 nM var, first column", "value": 78.989}, {"measurement": "YFP fluorescence quenching using Varenicline", "setting": "Lenti-X 293T cells; 300 nM var, second column", "value": 79.21}, {"measurement": "YFP fluorescence quenching using Varenicline", "setting": "Lenti-X 293T cells; 500 nM var, first column", "value": 79.212}, {"measurement": "YFP fluorescence quenching using Varenicline", "setting": "Lenti-X 293T cells; 500 nM var, second column", "value": 79.771}, {"measurement": "YFP fluorescence quenching using CNL001", "setting": "Lenti-X 293T cells; 1 uM CNL001, first column", "value": 81.191, "unit": "%"}, {"measurement": "YFP fluorescence quenching using CNL001", "setting": "Lenti-X 293T cells; 1 uM CNL001, second column", "value": 82.385, "unit": "%"}, {"measurement": "YFP fluorescence quenching using CNL002", "setting": "Lenti-X 293T cells; 1 uM CNL002", "value": 46.04, "unit": "%"}, {"measurement": "YFP fluorescence quenching using ABT-126", "setting": "Lenti-X 293T cells; 1 uM abt", "value": 25.08, "unit": "%"}, {"measurement": "YFP fluorescence quenching using TC-6987", "setting": "Lenti-X 293T cells; 1 uM tc6987", "value": "−13.32"}, {"measurement": "YFP fluorescence quenching using Varenicline", "setting": "Lenti-X 293T cells; 1 uM var, first column", "value": 79.538}, {"measurement": "YFP fluorescence quenching using Varenicline", "setting": "Lenti-X 293T cells; 1 uM var, second column", "value": 80.577}, {"measurement": "YFP fluorescence quenching using TC-6987", "setting": "Lenti-X 293T cells; 10 uM tc6987", "value": 43.71}, {"measurement": "YFP fluorescence quenching using CNL002", "setting": "Lenti-X 293T cells; 30 uM CNL002", "value": 39.82, "unit": "%"}, {"measurement": "YFP fluorescence quenching using AZD-0328", "setting": "Lenti-X 293T cells; 30 uM azd0328", "value": 79.31, "unit": "%"}, {"measurement": "YFP fluorescence quenching using Facinicline", "setting": "Lenti-X 293T cells; 30 uM fac", "value": 78.24}, {"measurement": "YFP fluorescence quenching using TC-6987", "setting": "Lenti-X 293T cells; 500 uM tc6987", "value": 53.98}, {"measurement": "percent quench of YFP fluorescence, 30 nM TC-6683", "setting": "Lenti-X 293T cells; TC-6683 30 nM", "value": "−1.645", "unit": "%"}, {"measurement": "percent quench of YFP fluorescence, 300 nM TC-6683", "setting": "Lenti-X 293T cells; TC-6683 300 nM", "value": 3.043, "unit": "%"}, {"measurement": "percent quench of YFP fluorescence, 3 uM TC-6683", "setting": "Lenti-X 293T cells; TC-6683 3 uM", "value": 0.082, "unit": "%"}, {"measurement": "percent quench of YFP fluorescence, 30 uM TC-6683", "setting": "Lenti-X 293T cells; TC-6683 30 uM", "value": 2.449, "unit": "%"}, {"measurement": "percent quench of YFP fluorescence, 100 uM TC-6683", "setting": "Lenti-X 293T cells; TC-6683 100 uM", "value": 10.437, "unit": "%"}, {"measurement": "percent quench of YFP fluorescence, 10 uM ach", "setting": "Lenti-X 293T cells; acetylcholine 10 uM", "value": 12.57, "unit": "%"}, {"measurement": "percent quench of YFP fluorescence, 50 uM ach", "setting": "Lenti-X 293T cells; acetylcholine 50 uM", "value": "−3.46", "unit": "%"}, {"measurement": "percent quench of YFP fluorescence, 100 uM ach", "setting": "Lenti-X 293T cells; acetylcholine 100 uM", "value": 12.65, "unit": "%"}, {"measurement": "percent quench of YFP fluorescence, 300 uM ach", "setting": "Lenti-X 293T cells; acetylcholine 300 uM", "value": "−6.96", "unit": "%"}, {"measurement": "percent quench of YFP fluorescence, 500 uM ach", "setting": "Lenti-X 293T cells; acetylcholine 500 uM", "value": "−6.77", "unit": "%"}, {"measurement": "percent quench of YFP fluorescence, 1 mM ach", "setting": "Lenti-X 293T cells; acetylcholine 1 mM", "value": 19.42, "unit": "%"}, {"measurement": "percent quench of YFP fluorescence, 3 mM ach", "setting": "Lenti-X 293T cells; acetylcholine 3 mM", "value": 65.06, "unit": "%"}, {"measurement": "Rheobase Shift; Rat DRG Neurons, +TC-5619 @ EC90", "setting": "rat DRG neurons; +TC-5619 @ EC90", "value": "560 ± 72", "unit": "pA"}, {"measurement": "Rheobase Shift; Rat DRG Neurons, Baseline", "setting": "rat DRG neurons; Baseline, no ligand", "value": "140 ± 19", "unit": "pA"}]}
